In patent publication US20190151446A1 (LIVERPOOL SCHOOL OF TROPICAL MEDICINE, published 2019):
Numbering of substitutions follows the chain as printed. Numbers in names are those of the source.

T1: human FcγRIIA (human, UniProt P12318 36-218)
T1 construct: Bought protein, construct not described
T1 sequence (looked up): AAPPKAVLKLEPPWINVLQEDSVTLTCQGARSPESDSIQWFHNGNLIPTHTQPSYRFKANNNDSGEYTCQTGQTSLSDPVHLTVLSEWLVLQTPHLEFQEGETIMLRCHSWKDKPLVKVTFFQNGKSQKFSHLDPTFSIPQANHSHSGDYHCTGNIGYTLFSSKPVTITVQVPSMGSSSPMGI

T2: human FcγRIIB (human, UniProt P31994 46-217)
T2 construct: Bought protein, construct not described
T2 sequence (looked up): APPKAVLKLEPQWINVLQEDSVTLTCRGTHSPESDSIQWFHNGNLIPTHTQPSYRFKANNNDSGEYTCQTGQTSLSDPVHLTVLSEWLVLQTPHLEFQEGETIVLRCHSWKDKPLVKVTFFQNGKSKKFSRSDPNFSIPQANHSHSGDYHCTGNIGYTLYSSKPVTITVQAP

T3: soluble recombinant tetrameric human DC-SIGN (human, UniProt Q9NNX6 66-404, limits assumed)
T3 construct: also called Dendritic Cell-Specific Intercellular adhesion molecule-3-Grabbing Non-integrin
T3 sequence (looked up): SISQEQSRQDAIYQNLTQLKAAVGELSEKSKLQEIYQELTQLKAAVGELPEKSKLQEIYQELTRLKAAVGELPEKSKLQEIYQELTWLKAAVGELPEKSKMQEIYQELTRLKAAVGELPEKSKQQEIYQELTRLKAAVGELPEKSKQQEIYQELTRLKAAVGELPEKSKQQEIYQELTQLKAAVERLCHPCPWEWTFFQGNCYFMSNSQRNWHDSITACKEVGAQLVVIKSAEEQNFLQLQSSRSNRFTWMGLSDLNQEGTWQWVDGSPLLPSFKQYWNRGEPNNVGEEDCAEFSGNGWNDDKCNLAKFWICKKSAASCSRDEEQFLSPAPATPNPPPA

B1: human Siglec-1 (receptor, UniProt Q9BZZ2 20-1641, looked up)
chain: SWGVSSPQDVQGVKGSCLLIPCIFSFPADVEVPDGITAIWYYDYSGQRQVVSHSADPKLVEARFRGRTEFMGNPEHRVCNLLLKDLQPEDSGSYNFRFEISEVNRWSDVKGTLVTVTEEPRVPTIASPVELLEGTEVDFNCSTPYVCLQEQVRLQWQGQDPARSVTFNSQKFEPTGVGHLETLHMAMSWQDHGRILRCQLSVANHRAQSEIHLQVKYAPKGVKILLSPSGRNILPGELVTLTCQVNSSYPAVSSIKWLKDGVRLQTKTGVLHLPQAAWSDAGVYTCQAENGVGSLVSPPISLHIFMAEVQVSPAGPILENQTVTLVCNTPNEAPSDLRYSWYKNHVLLEDAHSHTLRLHLATRADTGFYFCEVQNVHGSERSGPVSVVVNHPPLTPVLTAFLETQAGLVGILHCSVVSEPLATLVLSHGGHILASTSGDSDHSPRFSGTSGPNSLRLEIRDLEETDSGEYKCSATNSLGNATSTLDFHANAARLLISPAAEVVEGQAVTLSCRSGLSPTPDARFSWYLNGALLHEGPGSSLLLPAASSTDAGSYHCRARDGHSASGPSSPAVLTVLYPPRQPTFTTRLDLDAAGAGAGRRGLLLCRVDSDPPARLQLLHKDRVVATSLPSGGGCSTCGGCSPRMKVTKAPNLLRVEIHNPLLEEEGLYLCEASNALGNASTSATFNGQATVLAIAPSHTLQEGTEANLTCNVSREAAGSPANFSWFRNGVLWAQGPLETVTLLPVARTDAALYACRILTEAGAQLSTPVLLSVLYPPDRPKLSALLDMGQGHMALFICTVDSRPLALLALFHGEHLLATSLGPQVPSHGRFQAKAEANSLKLEVRELGLGDSGSYRCEATNVLGSSNTSLFFQVRGAWVQVSPSPELQEGQAVVLSCQVHTGVPEGTSYRWYRDGQPLQESTSATLRFAAITLTQAGAYHCQAQAPGSATTSLAAPISLHVSYAPRHVTLTTLMDTGPGRLGLLLCRVDSDPPAQLRLLHGDRLVASTLQGVGGPEGSSPRLHVAVAPNTLRLEIHGAMLEDEGVYICEASNTLGQASASADFDAQAVNVQVWPGATVREGQLVNLTCLVWTTHPAQLTYTWYQDGQQRLDAHSIPLPNVTVRDATSYRCGVGPPGRAPRLSRPITLDVLYAPRNLRLTYLLESHGGQLALVLCTVDSRPPAQLALSHAGRLLASSTAASVPNTLRLELRGPQPRDEGFYSCSARSPLGQANTSLELRLEGVRVILAPEAAVPEGAPITVTCADPAAHAPTLYTWYHNGRWLQEGPAASLSFLVATRAHAGAYSCQAQDAQGTRSSRPAALQVLYAPQDAVLSSFRDSRARSMAVIQCTVDSEPPAELALSHDGKVLATSSGVHSLASGTGHVQVARNALRLQVQDVPAGDDTYVCTAQNLLGSISTIGRLQVEGARVVAEPGLDVPEGAALNLSCRLLGGPGPVGNSTFAWFWNDRRLHAEPVPTLAFTHVARAQAGMYHCLAELPTGAAASAPVMLRVLYPPKTPTMMVFVEPEGGLRGILDCRVDSEPLASLTLHLGSRLVASSQPQGAPAEPHIHVLASPNALRVDIEALRPSDQGEYICSASNVLGSASTSTYFGVRALHRLHQFQQ
notes: Construct not described; also called sialoadhesin; CD169
B2: D221N mutant of hexa-Fc (Fc fusion)
chain: NKTHTCPPCPAPELLGGPSVFLFPPKPKDTLMISRTPEVTCVVVDVSHEDPEVKFNWYVDGVEVHNAKTKPREEQYNSTYRVVSVLTVCLQDWLNGKEYKCKVSNKALPAPIEKTISKAKGQPREPQVYTLPPSREEMTKNQVSLTCLVKGFYPSDIAVEWESNGQPENNYKTTPPVLDSDGSFFLYSKLTVDKSRWQQGNVFSCSVMHEALHNHYTQKSLSLSPGKLVLGPPLYNVSLVMSDTAGTCY
modifications: N-linked glycans at Asn221 (N1), Asn297 (N77) and Asn563 (N236)
notes: Made on the hexa-Fc template in CHO-K1 cells; multimeric, hyper-sialylated
B3: N297A mutant of hexa-Fc (Fc fusion)
chain: B2 chain with N1D, N77A
modifications: N-linked glycan at Asn563 (N236)
notes: Made on the hexa-Fc template in CHO-K1 cells; still multimeric (pentamers and hexamers)
B4: D221N/N297A/N563A mutant of hexa-Fc (Fc fusion)
chain: B2 chain with N77A, N236A
modifications: N-linked glycan at Asn221 (N1)
notes: Made on the hexa-Fc template in CHO-K1 cells; higher order multimers; also called D221/N297A/N563A
B5: N297A/N563A mutant of hexa-Fc (Fc fusion)
chain: B2 chain with N1D, N77A, N236A
modifications: no glycans attached
notes: Made on the hexa-Fc template in CHO-K1 cells; Results-1 says it cannot form oligomers, Results-2 says it forms higher order multimers; also called glycan deficient mutant; N297A/N563A double-knockout
B6: D221N/N297A mutant of hexa-Fc (Fc fusion)
chain: B2 chain with N77A
modifications: N-linked glycans at Asn221 (N1) and Asn563 (N236)
notes: Made on the hexa-Fc template in CHO-K1 cells; multimeric
B7: D221N/N563A mutant of hexa-Fc (Fc fusion)
chain: B2 chain with N236A
modifications: N-linked glycans at Asn221 (N1) and Asn297 (N77)
notes: Made on the hexa-Fc template in CHO-K1 cells; runs as higher order multimers approximating dodecamers; also called D221/N563A; D221N/N563A dodecamer

Columns and labels:
[1] = target: T4, monomeric IgG1-Fc control (human, UniProt P01857-1 104-330 = IgG part, limits assumed, N-linked glycan at Asn297); experiment: ELISA (FIG. 12 B)
T4 construct: domain: Fc; also called wildtype IgG-Fc; wildtype IgG1-Fc

human FcγRIIIB = target: T5, human FcγRIIIB (human, UniProt O75015 17-200); experiment: ELISA, receptor coated on plate
T5 construct: Bought protein, construct not described
T5 sequence (O75015 17-200 limits assumed): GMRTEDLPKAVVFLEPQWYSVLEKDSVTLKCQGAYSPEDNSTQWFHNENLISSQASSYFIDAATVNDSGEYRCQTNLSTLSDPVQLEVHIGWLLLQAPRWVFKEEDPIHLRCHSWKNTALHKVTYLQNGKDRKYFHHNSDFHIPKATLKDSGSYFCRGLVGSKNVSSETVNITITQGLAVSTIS
Description: (§1) ELISAs were used to investigate the binding of oligomeric Fc mutants to FcγRI, FcγRIIA, FcγRIIB, FcγRIIIA and FcγRIIIB (all from R&D laboratories). Receptors were coated down to ELISA plates (Nunc) in carbonate buffer pH9 (Sigma-Aldrich) at 2 μg/ml overnight at 4° C. Plates were then blocked in PBS/0.1% Tween-20 (PBST) containing 4% skimmed milk (Tesco). Plates were then washed three times in PBS/0.1% Tween-20 (PBST) before adding Fc mutants at the indicated concentrations in PBST overnight at 4° C. Plates were washed as above and incubated for 2 h with 1:500 dilution of an alkaline phosphatase conjugated goat Fab′₂ anti-human IgG (Jackson Laboratories). Plates were washed as above and developed for 15 min with 100 μl of a Sigmafast p-nitrophenyl phosphate solution (Sigma-Aldrich). Plates were read at 405 nm and data plotted with Graphpad prism.

human FcγRIIA = target: T1, human FcγRIIA; experiment: ELISA, receptor coated on plate
Description: as §1

human FcγRI = target: T6, human FcγRI (human, UniProt P12314 16-288); experiment: ELISA, receptor coated on plate
T6 construct: Bought protein, construct not described
T6 sequence (P12314 16-288 limits assumed): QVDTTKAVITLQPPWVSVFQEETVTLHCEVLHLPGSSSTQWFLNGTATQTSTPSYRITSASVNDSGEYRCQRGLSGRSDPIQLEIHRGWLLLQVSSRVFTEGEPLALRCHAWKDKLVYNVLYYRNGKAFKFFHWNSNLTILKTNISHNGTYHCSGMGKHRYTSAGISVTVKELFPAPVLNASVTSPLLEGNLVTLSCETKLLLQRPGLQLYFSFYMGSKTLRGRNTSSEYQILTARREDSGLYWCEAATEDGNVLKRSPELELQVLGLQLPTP
Description: as §1

human FcγRIIIA [2] = target: T7, human FcγRIIIA (human, UniProt P08637 17-208); experiment: ELISA, receptor coated on plate
T7 construct: Bought protein, construct not described; also called FcgRIIIA
T7 sequence (P08637 17-208 limits assumed): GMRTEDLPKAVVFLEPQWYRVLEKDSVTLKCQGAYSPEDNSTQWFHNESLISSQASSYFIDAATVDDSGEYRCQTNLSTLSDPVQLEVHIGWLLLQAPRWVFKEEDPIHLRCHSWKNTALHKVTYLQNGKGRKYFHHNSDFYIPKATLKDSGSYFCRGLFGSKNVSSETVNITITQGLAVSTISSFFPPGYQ
Description: as §1

human FcγRIIB = target: T2, human FcγRIIB; experiment: ELISA, receptor coated on plate
Description: as §1

[3] = target: T3, soluble recombinant tetrameric human …; experiment: ELISA, soluble tetrameric human DC-SIGN (FIG. 12 A)
human Siglec-1 = target: B1; experiment: ELISA (FIG. 12 B)
human FcγRIIIA [4] = target: T7, human FcγRIIIA; experiment: ELISA, receptor coated on plate (FIG. 4)
Description: as §1

Row | Binder | binding result [1] | binding result (human FcγRIIIB) | binding result (human FcγRIIA) | binding result (human FcγRI) | binding result (human FcγRIIIA [2]) | binding result (human FcγRIIB) | binding result [3] | binding result (human Siglec-1) | binding result (human FcγRIIIA [4])
1 | B1 | no binding |  |  |  |  |  |  |  | 
2 | B2 |  | no binding | no binding | no binding | no binding | no binding |  |  | 
3 | B3 |  | no binding | no binding | no binding | no binding | no binding |  |  | 
4 | B4 |  |  |  |  |  |  | no binding |  | 
5 | B5 |  |  |  |  |  |  |  | no binding | 
6 | B6 |  | no binding | no binding | no binding | no binding | no binding | no binding |  | 
7 | B7 |  | binds | binds | binds |  | binds |  |  | binds
